“And” between values parts separate entries of the source, which are not always exact repeats. Equal values may be shown once.

Test [1] has as its target voltage-gated potassium channel KV1.6 (rat) (UniProt P17659).
Test [2] concerns the target KcsA-KV1.1 hybrid channel. Put plainly: competitive binding on spheroplasts by confocal fluorescence microscopy.
Test [3] concerns the target KcsA-KV1.3 hybrid channel. Described as above.

UniProt P17659, sequence (P17659 whole entry): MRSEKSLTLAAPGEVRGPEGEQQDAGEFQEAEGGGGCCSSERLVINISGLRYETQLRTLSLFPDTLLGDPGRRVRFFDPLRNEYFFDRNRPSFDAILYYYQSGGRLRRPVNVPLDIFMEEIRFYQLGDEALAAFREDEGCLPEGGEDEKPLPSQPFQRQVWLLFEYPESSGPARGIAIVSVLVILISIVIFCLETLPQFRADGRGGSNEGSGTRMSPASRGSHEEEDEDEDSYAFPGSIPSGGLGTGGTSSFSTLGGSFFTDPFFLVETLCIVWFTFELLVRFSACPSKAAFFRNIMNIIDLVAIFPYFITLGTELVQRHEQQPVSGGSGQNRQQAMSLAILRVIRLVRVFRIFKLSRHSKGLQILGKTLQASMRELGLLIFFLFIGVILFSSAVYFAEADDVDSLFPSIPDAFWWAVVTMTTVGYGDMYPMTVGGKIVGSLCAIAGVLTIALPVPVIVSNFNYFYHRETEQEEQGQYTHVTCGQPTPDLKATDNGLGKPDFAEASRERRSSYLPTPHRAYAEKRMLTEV

As for “OSK1 (from UniProt P55896 1-38) (peptide)”, the IC50 of inhibition of KV1.6 currents, two-electrode voltage clamp in Xenopus oocytes in test [1] is 71 nM.

“AgTx2 (from UniProt P46111 1-38) (peptide)” gave an IC50 of inhibition of KV1.6 currents, two-electrode voltage clamp in Xenopus oocytes in test [1] of 92 nM.

Take GVPINVSCTGSPQCIKPCKDAGMRFGKCMNRKCHCTPK [AgTx2]: the dissociation constant Kd was 0.049 nM and 0.067 nM in test [2]; 0.031 nM and 0.03 nM in test [3].

For GVIINVKCKISRQCLEPCKKAGMRFGKCMNGKCHCTPK [OSK1], the dissociation constant Kd in test [2] was 1.31 nM and 1.42 nM; in test [3] it was 0.9 nM and 0.7 nM.

A word on the Kd: it is a measure of binding affinity in units of concentration. A low value points to higher affinity.

The values are drawn from publication PMC5030662.
